{"source": "patent US8034572B2", "about": "“Receptor for GDNF family ligands” (priority 2006, dated 2011)", "molecules": {"B1": {"name": "GDNF: Glial cell line-derived neurotrophic factor, secreted growth factor, GDNF family ligand (protein)", "chain": "SPDKQMAVLPRRERNRQAAAANPENSRGKGRRGQRGKNRGCVLTAIHLNVTDLGLGYETKEELIFRYCSGSCDAAETTYDKILKNLSRNRRLVSDKVGQACCRPIAFDDDLSFLDDNLVYHILRKHSAKRCGCI"}}, "key": {"[1]": {"assay": "SPR (IAsys): heparin interaction with GFLs cuvette", "assay_type": "binding", "details": "GFLs cuvette", "experimental": "(§1) The affinities of GFLs for heparin and heparin-like molecules (e.g. syndecan-3) were determined by plasmon surface resonance using the IAsys system (Affinity Sensors, Cambridge, UK). Planar aminosilane cuvettes (Affinity Sensors) were used for protein coupling to avoid problems with mass transport, which occur frequently with matrix surfaces. In the initial approach, heparin-BSA was immobilized to the cuvette surface using the manufacturer's instructions and different ligand concentrations were used to determine association (ka) and dissociation (kdis) rates using the IAsys Fastfit software. The dissociation constant Kd was determined from the binding dynamics as […], or from equilibrium response (R) using a simple Langmuir fit: R=(Rmax*C)/(Kd+C), where C is the ligand concentration. […] The dissociation constants were determined from binding dynamics and equilibrium response. The same cuvettes were used to test binding of heparan sulfate proteoglycan syndecan-3, which was purified as an ectodomain from early postnatal rat brains by HB-GAM affinity chromatography (Raulo et al., 1994).\n(§2) Binding was analyzed using IAsys cuvettes with immobilized heparin-BSA or GFLs. The dissociation constant Kd was determined from dynamics of association and dissociation (Kd=kdis/ka), or from equilibrium response R (R=(Rmax*C)/(Kd+C), where C is ligand concentration)."}, "Src family kinase": {"system": "Src family kinase", "assay": "Src kinase phosphorylation assay in SHEP cells", "assay_type": "cell-based, human", "details": "SHEP cells plated on immobilized protein", "experimental": "SHEP cells from 10-cm plates were harvested as described above and plated on GDNF-coated 35-mm Petri dishes. Cells were allowed to sediment for 10 min at room temperature and then transferred to 37° C. for additional 15 min. Cells were lysed in the lysis buffer (TBS, 1% Triton X-100, 0.5% deoxycholic acid, 0.1% SDS, 10% glycerol, 1 mM Na3VO4, 1 mM PMSF and Complete protease inhibitor mixture). Lysates were analyzed on 10% SDS-PAGE and western blots were stained with anti-pY^418Src or anti-pp60Src antibodies (Biosource). Some cells were pretreated with heparinase III or PI-PLC."}, "syndecan-3 ectodomain": {"biological_target": "T1, syndecan-3 ectodomain (Rattus norvegicus, UniProt P33671)", "T1 construct": "purified as an ectodomain from early postnatal rat brains; from tissue; host or cells: early postnatal rat brain", "T1 sequence (P33671 45-387 limits assumed)": "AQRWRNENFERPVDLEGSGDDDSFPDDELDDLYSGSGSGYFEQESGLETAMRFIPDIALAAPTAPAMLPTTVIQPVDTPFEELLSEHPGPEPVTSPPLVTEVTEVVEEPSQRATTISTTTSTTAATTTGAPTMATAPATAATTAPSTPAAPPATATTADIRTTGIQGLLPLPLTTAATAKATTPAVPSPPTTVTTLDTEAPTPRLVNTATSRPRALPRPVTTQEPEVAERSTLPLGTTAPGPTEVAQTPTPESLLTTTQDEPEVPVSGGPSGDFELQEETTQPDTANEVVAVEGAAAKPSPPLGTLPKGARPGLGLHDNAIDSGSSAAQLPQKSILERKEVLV", "assay": "SPR (IAsys): syndecan-3 ectodomain interaction with GFLs cuvette", "assay_type": "binding", "details": "syndecan-3 ectodomain in solution", "experimental": "as §1, §2"}, "SHEP cells": {"system": "SHEP cells", "assay": "SHEP cell adhesion and spreading assay on immobilized proteins", "assay_type": "cell-based, human", "details": "protein immobilized on plastic microplate", "experimental": "Cell adhesion assays were essentially performed as described elsewhere (Weinacker et al., 1994). To prepare protein-coated surfaces the protein of interest (10 μg/ml in PBS) was applied to 96-well ELISA (Greiner) plates or to glass cover slips for 12-18 hours at +4° C. After incubation, the surfaces were washed with PBS and blocked with 1% globulin-free BSA for two hours. Some GDNF coated surfaces were incubated with 20 μg/ml of G-90 (Amgen) GDNF function-blocking antibodies (Xu et al., 1998) for 2 hours at room temperature.\nSubconfluent SHEP cells were harvested in PBS supplemented with 10 mM EDTA for 5 min at 37° C. Cells were washed with incubation buffer (RPMI 1640, 0.2% BSA, 15 mM HEPES pH 7.2) and 10000-40000 cells/well plated on the protein coated surface. Plates were centrifuged for 5 min at 10 g and incubated for one hour at 37° C. in 5% CO2. After incubation cells were washed with PBS, fixed with methanol supplemented with crystal violet for 15 min at room temperature and washed again with PBS. The remaining cells were counted using a Leica DMIRB inverted microscope with 10× objective in 5 fields per well.\nSome cells were pretreated with heparinase III, PI-PLC (see above), 0.3 U/ml chodroitinase ABC for one hour at 37° C., 5% CO2, or with 20 μg/ml of NCAM blocking antibodies (AB5032, Chemicon Inc.) for 15-30 min on ice.\nAfter one hour of incubation in serum-free medium unattached cells were removed by washing. The remaining cells were stained and counted on Leica DMIRB inverted microscope with a 10× objective in 5 fields per well and the resulting cell number was calculated for the whole well.\nLive SHEP cells spreading on immobilized GDNF were imaged for 20 minutes using the Till imaging system with an Imago-QE digital camera (Till Photonics) equipped with heating (+37° C.) and CO2 supply (5%) chambers."}, "[2]": {"system": "E15 mouse cortical neurons", "assay": "Cortical neurons migration assay (transfilter)", "assay_type": "cell-based", "details": "16 hours", "experimental": "Cortical lobes from E15 mouse brains were dissected under a stereomicroscope and dissociated using a 20 G needle and a syringe in DMEM containing 10% FCS. The cortical preparation was spun down at 1000 rpm for 5 min and the pellet was washed with culture medium containing serum. The pellet was carefully resuspended and the preparation was allowed to sediment for five more minutes before the cleared supernatant was collected. The cells in the supernatant were allowed to recover in serum-containing DMEM for 30-60 min. Recovered cells were washed once with the assay medium (DMEM with 10 mg/ml BSA, L-glutamine and antibiotics) and resuspended in the same medium.\nTranswell filters (Costar) with 12-μm pore size or polycarbonate filters saturated with 100 μg/ml poly-L-lysine were coated with GDNF or ΔN-GDNF in 1 μM, 10 μM and 100 μM concentrations overnight at 4° C. and equilibrated with assay medium 30 min in +37° C. incubator prior to use. The spontaneous and random migratory activity of neural cells was controlled with uncoated filters.\nEmbryonic cortical cells were plated on the filters at 150000 cells per filter and left to migrate for 16 hours. […] The number of cells that had migrated to the coated surface of the filters was calculated using the inverted light microscope Olympus IX71."}}, "data": [{"molecule": "B1", "values": [{"measurement": "ka (×10^−5) (M^−1s^−1)", "setting": "[1]; heparin in solution", "value": "15 (×10^−5) M^−1s^−1"}, {"measurement": "kdis", "setting": "[1]; heparin in solution", "value": 0.034, "unit": "s⁻¹"}, {"measurement": "Kd = kdis/ka", "setting": "[1]; from dynamics", "value": "22.7 ± 2.7", "unit": "nM"}, {"measurement": "Kd", "setting": "[1]; from equilibrium response, read-out: Kd (equilibrium)", "value": "12.3 ± 3.4", "unit": "nM"}, {"measurement": "activation of Src family kinases (pY^418Src Western blot)", "setting": "Src family kinase", "value": "induces HSPG-dependent activation of Src family kinases"}, {"measurement": "ka (×10^−5) (M^−1s^−1)", "setting": "syndecan-3 ectodomain", "value": "13 ± 2 (×10^−5) M^−1s^−1"}, {"measurement": "adherence and spreading of SHEP cells on immobilized protein", "setting": "SHEP cells", "value": "induced adherence and spreading"}, {"measurement": "migration of syndecan-3-deficient embryonic cortical neurons", "setting": "[2]; filters coated with GDNF", "value": "strongly impaired"}, {"measurement": "migration of wild type embryonic cortical cells", "setting": "[2]; filters coated with protein", "value": "stimulated massive migration"}]}]}
